According to paper PMC10275983 (Nature Communications, 2023):
No end group written: not given here.

Target: S1-RBD (ACROBiosystems SPD-C82E9) (SARS-CoV-2 (Wuhan-Hu-1 strain), UniProt P0DTC2 319-541)
Assay: SPR
Settings: both partners purified

Binder | binding result
ACEYVGPMCYRLYCA (not fully specified (bridges); also: Bicycle) [E1 Bicycle (exemplar of epitope group 1)] | binds
ACANPDNPVCRFYCA (not fully specified (bridges); also: bicyclic peptide, scaffold not named) [E5 Bicycle (canonical exemplar of epitope group 5)] | binds
ACPYVAGRGTCLLCA (not fully specified (bridges); cysteine pairing not given here) [E2 Bicycle (canonical exemplar of epitope group 2)] | binds
ACEDNDWVYCSTCA (not fully specified (bridges); also: bicyclic peptide, scaffold not named) [E3 Bicycle (exemplar of epitope group 3)] | binds
